Common to all, as to test: SEC; Superdex200 column, PBS buffer pH 7.4, after nickel affinity chromatography
Background: Size exclusion chromatography separates by hydrodynamic size, large species first.

Assay [1] has as its target SsA2 (R-1b variant with the A55C-L188C disulfide) (respiratory syncytial virus (RSV) | bacteriophage T4) (UniProt P03420).
The target of assay [2] is SsA1 (R-1b variant with the V157C-N183C disulfide) (respiratory syncytial virus (RSV) | bacteriophage T4) (UniProt P03420).
Assay [3] deals with SsB1 (R-1b variant with the S443C-S466C disulfide) (respiratory syncytial virus (RSV) | bacteriophage T4) (UniProt P03420).

The values that follow come from article PMC11303214.

One may read the stoichiometry N as a count of units in the complex or per binding partner.

As to “SsA2 (R-1b variant with the A55C-L188C disulfide) (from UniProt P03420 26-105; P03420 137-513)”, in assay [1], the stoichiometry N was determined as 3. “SsA1 (R-1b variant with the V157C-N183C disulfide) (from UniProt P03420 26-105; P03420 137-513)” came in with a stoichiometry N in assay [2] of 3. Regarding “SsB1 (R-1b variant with the S443C-S466C disulfide) (from UniProt P03420 26-105; P03420 137-513)”, in assay [3], the stoichiometry N came to 3.
